Changes are numbered by the printed parent chain. Numbers in names are those of the source. Where “and” joins values, the source holds several entries; their conditions need not be identical. Equal entries are not always repeated. Where two headings read alike, the source gives them in different places.
B1: C28A/C82A/C128A/C185A/C245S/C254A/C394S: inactive A2aR variant that does not bind ligand (protein, UniProt P29274 1-412, looked up, variant C28A C82A C128A C185A C245S C254A C394S)
Adenosine receptor A2a: MPIMGSSVYITVELAIAVLAILGNVLVAWAVWLNSNLQNVTNYFVVSLAAADIAVGVLAIPFAITISTGFCAACHGCLFIAAFVLVLTQSSIFSLLAIAIDRYIAIRIPLRYNGLVTGTRAKGIIAIAWVLSFAIGLTPMLGWNNCGQPKEGKNHSQGCGEGQVACLFEDVVPMNYMVYFNFFAAVLVPLLLMLGVYLRIFLAARRQLKQMESQPLPGERARSTLQKEVHAAKSLAIIVGLFALSWLPLHIINAFTFFCPDCSHAPLWLMYLAIVLSHTNSVVNPFIYAYRIREFRQTFRKIIRSHVLRQQEPFKAAGTSARVLAAHGSDGEQVSLRLNGHPPGVWANGSAPHPERRPNGYALGLVSGGSAQESQGNTGLPDVELLSHELKGVSPEPPGLDDPLAQDGAGVS
B2: TSWLH: single-residue mutant Q89S of A2aR, the most abundant variant in PS4 (protein, UniProt P29274 1-412, looked up, variant Q89S)
Adenosine receptor A2a: B1 Adenosine receptor A2a with A28C, A82C, Q89S, A128C, A185C, S245C, A254C, S394C
B3: TAWLH: single-residue mutant Q89A of A2aR, positive control reported to exhibit improved binding affinity to NECA (protein, UniProt P29274 1-412, looked up, variant Q89A)
Adenosine receptor A2a: B1 Adenosine receptor A2a with A28C, A82C, Q89A, A128C, A185C, S245C, A254C, S394C
modifications: decahistidine tag
B4: TGRIA: Variant GRIA (T88/Q89G/W246R/L249I/H250A) of human adenosine A2a receptor (protein, UniProt P29274 1-412, looked up, variant Q89G W246R L249I H250A)
Adenosine receptor A2a: MPIMGSSVYITVELAIAVLAILGNVLVCWAVWLNSNLQNVTNYFVVSLAAADIAVGVLAIPFAITISTGFCAACHGCLFIACFVLVLTGSSIFSLLAIAIDRYIAIRIPLRYNGLVTGTRAKGIIAICWVLSFAIGLTPMLGWNNCGQPKEGKNHSQGCGEGQVACLFEDVVPMNYMVYFNFFACVLVPLLLMLGVYLRIFLAARRQLKQMESQPLPGERARSTLQKEVHAAKSLAIIVGLFALCRLPIAIINCFTFFCPDCSHAPLWLMYLAIVLSHTNSVVNPFIYAYRIREFRQTFRKIIRSHVLRQQEPFKAAGTSARVLAAHGSDGEQVSLRLNGHPPGVWANGSAPHPERRPNGYALGLVSGGSAQESQGNTGLPDVELLSHELKGVCPEPPGLDDPLAQDGAGVS
B5: SLNIG: A2aR variant; letters are residues at T88, Q89, W246, L249, H250 (protein, UniProt P29274 1-412, looked up, variant T88S Q89L W246N L249I H250G)
Adenosine receptor A2a: B4 Adenosine receptor A2a with T88S, G89L, R246N, A250G

What was measured:
A2aR W246Y = conditions: cited from earlier work
[1] = target: A2aR suspended in bovine striatal membranes; parameters: method as in earlier work; conditions: literature value; cited from earlier work
[2] = Whole-cell saturation radioligand binding; parameters: species or system Saccharomyces cerevisiae; conditions: for Kd: 3H-NECA, whole yeast cells, pH 5.8, mean ± SD of three biological replicates, read-out: equilibrium dissociation constant (Kd); for CPM: raw replicate counts, empty vector not subtracted; for fold greater 3H-NECA binding affinity than wild-type receptor: ratio of Kd to wild-type
[3] = Fluorescent ligand binding measured by flow cytometry; parameters: species or system Saccharomyces cerevisiae; conditions: for fluorescent ligand binding signal / % pop above background / Mean Singlet Fluorescence Intensity (530 nm): replicates; for % pop above background / Mean Singlet Fluorescence Intensity (530 nm): incubated with FITC-APEC; for fluorescent ligand binding, result in words: FITC-APEC, yeast cells
[4] = FACS-based screen of A2aR library with deep sequencing (BRIDGE): variant enrichment; assay type: cell-based, Saccharomyces cerevisiae
[5] = naive to PS4 library (PS4/naive), high-stringency gating, 10 µM FITC-APEC
[6] = naive to PS4 library, WT rate 0.30

Molecule	Kd [2] [nM]	CPM ([2]; [3H-NECA] 1.6 nM)	CPM ([2]; [3H-NECA] 3.1 nM)	CPM ([2]; [3H-NECA] 6.3 nM)	CPM ([2]; [3H-NECA] 12.5 nM)	CPM ([2]; [3H-NECA] 25 nM)	CPM ([2]; [3H-NECA] 50 nM)	CPM ([2]; [3H-NECA] 100 nM)	CPM ([2]; [3H-NECA] 200 nM)	CPM ([2]; [3H-NECA] 400 nM)	Enrichment rate [4, 5]	fold greater 3H-NECA binding affinity than wild-type receptor [2]	also measured
CCNC(=O)[C@H]1O[C@@H](n2cnc3c(N)nc(NCCc4ccc(CCC(=O)O)cc4)nc32)[C@H](O)[C@@H]1O [CGS21680]													potency of the agonist (A2aR W246Y): comparable to that of the wild-type receptor
CCNC(=O)[C@H]1O[C@@H](n2cnc3c(N)nc(NCCc4ccc(CCC(=O)NCCNC(=S)Nc5ccc6c(c5)C(=O)OC65c6ccc(O)cc6Oc6cc(O)ccc65)cc4)nc32)[C@H](O)[C@@H]1O [FITC-APEC]													Kd [1]: 57 nM
WT: wild-type human adenosine A2a receptor, decahistidine-tagged, expressed in yeast from centromeric pYC vector [reference compound]	39.2 ± 4.8	64 CPM and 47 CPM and 35 CPM	108 CPM and 89 CPM and 54 CPM	192 CPM and 223 CPM and 155 CPM	331 CPM and 408 CPM and 255 CPM	470 CPM and 533 CPM and 388 CPM	546 CPM and 694 CPM and 708 CPM	805 CPM and 900 CPM and 958 CPM	1026 CPM and 1370 CPM and 1371 CPM	1047 CPM and 2304 CPM and 1995 CPM	0.3		fluorescent ligand binding signal ([3]; [FITC-APEC] 10 nM, Supplementary Figure 1 source data, listed as pYC A2a10H): 101 and 100 and 99; fluorescent ligand binding signal ([3]; [FITC-APEC] 10 nM, Supplementary Figure 4 source data, listed as pYC A2a10H): 104 and 103 and 102; fluorescent ligand binding signal ([3]; [FITC-APEC] 100 nM, Supplementary Figure 1 source data, listed as pYC A2a10H): 111 and 108 and 134; fluorescent ligand binding signal ([3]; [FITC-APEC] 100 nM, Supplementary Figure 4 source data, listed as pYC A2a10H): 114 and 110 and 133; fluorescent ligand binding signal ([3]; [FITC-APEC] 1000 nM, Supplementary Figure 1 source data, listed as pYC A2a10H): 208 and 180 and 189; fluorescent ligand binding signal ([3]; [FITC-APEC] 1000 nM, Supplementary Figure 4 source data, listed as pYC A2a10H): 206 and 184 and 191; fluorescent ligand binding signal ([3]; [FITC-APEC] 10000 nM, Supplementary Figure 1 source data, listed as pYC A2a10H): 370 and 353 and 396; fluorescent ligand binding signal ([3]; [FITC-APEC] 10000 nM, Supplementary Figure 4 source data, listed as pYC A2a10H): 377 and 330 and 373; fluorescent ligand binding signal ([3]; [FITC-APEC] 50000 nM, Supplementary Figure 1 source data, listed as pYC A2a10H): 442 and 457 and 477; fluorescent ligand binding signal ([3]; [FITC-APEC] 50000 nM, Supplementary Figure 4 source data, listed as pYC A2a10H): 354 and 386 and 364; Enrichment rate ([4]; naive to PS4 population): 0.30 fold
pITy A2a10H: decahistidine-tagged wild-type A2aR expressed in yeast from multi-site-integrating pITy vector													% pop above background ([3]; +raffinose): 97.3% and 99.1% and 99.7%; Mean Singlet Fluorescence Intensity (530 nm) ([3]; +raffinose): 1177 a.u. and 1389 a.u. and 1621 a.u.; % pop above background ([3]; -raffinose): 88.4% and 92.7% and 86.6%; Mean Singlet Fluorescence Intensity (530 nm) ([3]; -raffinose): 853 a.u. and 1341 a.u. and 1013 a.u.; fluorescent ligand binding signal ([3]; [FITC-APEC] 10 nM, Supplementary Figure 1 source data): 102 and 103 and 101; fluorescent ligand binding signal ([3]; [FITC-APEC] 100 nM, Supplementary Figure 1 source data): 124 and 112 and 118; fluorescent ligand binding signal ([3]; [FITC-APEC] 1000 nM, Supplementary Figure 1 source data): 357 and 323 and 352; fluorescent ligand binding signal ([3]; [FITC-APEC] 10000 nM, Supplementary Figure 1 source data): 1097 and 999 and 1047; fluorescent ligand binding signal ([3]; [FITC-APEC] 50000 nM, Supplementary Figure 1 source data): 1681 and 1267 and 1322
B1													fluorescent ligand binding, result in words [3]: does not bind ligand
B2	11.8 ± 1	269 CPM and 283 CPM and 176 CPM	574 CPM and 478 CPM and 918 CPM	877 CPM and 818 CPM and 594 CPM	1293 CPM and 1161 CPM and 783 CPM	1556 CPM and 1523 CPM and 1194 CPM	2099 CPM and 1735 CPM and 1402 CPM	2533 CPM and 2165 CPM and 1719 CPM	2889 CPM and 2229 CPM and 2151 CPM	3382 CPM and 2947 CPM and 2944 CPM		fourfold	Fold increase in enrichment rate over WT [4]: 1121 fold
B3	9.9 ± 0.4	224 CPM and 211 CPM and 240 CPM	450 CPM and 470 CPM and 429 CPM	719 CPM and 702 CPM and 640 CPM	1084 CPM and 978 CPM and 892 CPM	1238 CPM and 1266 CPM and 1270 CPM	1460 CPM and 1383 CPM and 1357 CPM	1834 CPM and 1782 CPM and 1547 CPM	2245 CPM and 2197 CPM and 2158 CPM	2884 CPM and 2262 CPM and 2852 CPM	149	fourfold	fluorescent ligand binding, result in words [3]: improved binding affinity; fluorescent ligand binding signal ([3]; [FITC-APEC] 10 nM, Supplementary Figure 4 source data, listed as pYC A2a10H (Q89A)): 102 and 104 and 101; fluorescent ligand binding signal ([3]; [FITC-APEC] 100 nM, Supplementary Figure 4 source data, listed as pYC A2a10H (Q89A)): 132 and 133 and 147; fluorescent ligand binding signal ([3]; [FITC-APEC] 1000 nM, Supplementary Figure 4 source data, listed as pYC A2a10H (Q89A)): 298 and 308 and 303; fluorescent ligand binding signal ([3]; [FITC-APEC] 10000 nM, Supplementary Figure 4 source data, listed as pYC A2a10H (Q89A)): 368 and 357 and 377; fluorescent ligand binding signal ([3]; [FITC-APEC] 50000 nM, Supplementary Figure 4 source data, listed as pYC A2a10H (Q89A)): 430 and 460 and 408; Fold increase in enrichment rate over WT [4, 6]: 497 fold; Enrichment rate ([4]; naive to PS4 population): 149 fold
B4	10.9 ± 0.8	148 CPM and 222 CPM and 182 CPM	317 CPM and 337 CPM and 348 CPM	477 CPM and 597 CPM and 529 CPM	612 CPM and 847 CPM and 800 CPM	815 CPM and 1157 CPM and 1066 CPM	1152 CPM and 1391 CPM and 1352 CPM	1488 CPM and 1655 CPM and 1630 CPM	1857 CPM and 2089 CPM and 2112 CPM	2326 CPM and 2813 CPM and 3169 CPM	517	fourfold	Fold increase in enrichment rate over WT [4, 6]: 1722 fold
B5	10.7 ± 0.6	138 CPM and 195 CPM and 220 CPM	282 CPM and 376 CPM and 382 CPM	494 CPM and 563 CPM and 618 CPM	783 CPM and 767 CPM and 883 CPM	861 CPM and 1199 CPM and 1152 CPM	1216 CPM and 1410 CPM and 1521 CPM	1341 CPM and 1416 CPM and 1794 CPM	1692 CPM and 1849 CPM and 2050 CPM	2037 CPM and 2595 CPM and 2482 CPM			Enrichment rate [4]: 791; Fold increase in enrichment rate over WT [4]: 2635 fold

— PMC7000732, “Bridging non-overlapping reads illuminates high-order epistasis between distal protein sites in a GPCR” (Nature Communications, 2020)
